The values below are quoted from earlier work in publication PMC12461627, “Locking CBL TKBD in its native conformation presents a novel therapeutic opportunity in mutant CBL-dependent leukemia” (Molecular Therapy, 2025).

This data set concerns the target pSYK peptide (Homo sapiens) (UniProt P43405). As to conditions: cited from earlier work.

In the case of CBL TKBD (from UniProt P22681), the dissociation constant (Kd) (in general, the constant that tells how readily two partners part at equilibrium) was 1.48 µM.
